B1: Hairpin Ribozyme (parent)
chain: GUCCUCUUUCACGUGCGCGUGAAAGAGAGAAGUGAACCAGAGAAACACACGUUGUGGUAUAUUACCUGGUA

Variants of: B1
Test: self-cleavage, relative activity (ratio to wild type); higher = more cleavage; co-transcriptional

Variant | self-cleavage
GUUCUCUUUCACGUGCGCGUGAAAGAGAGAAGUGAACCAGAGAAACAUACGUUGUGGUAUAUUACCUGGUA [C3U C48U] | 0.172
GUUCUCUUUCACGUGCGCGUGAAAGAGAGAAGUGAACCAGAGAAACAGACGUUGUGGUAUAUUACCUGGUA [C3U C48G] | 0.159
GUCAUCUUUCACGUGCGCGUGAAAGAGAGAAGUGAACCGGAGAAACACACGUUGUGGUAUAUUACCUGGUA [C4A A39G] | 0.134
GUCAUCUUUCACGUGCGCGUGAAAGAGAGAAGUGAAUCAGAGAAACACACGUUGUGGUAUAUUACCUGGUA [C4A C37U] | 0.16
GUUCUCUUUCACGUGCGCGUGAAAGAGAGAAGUGAACCAGAGAAACACACGUUGUGGCAUAUUACCUGGUA [C3U U58C] | 0.738
GUCAUCUUUCACGUGCGCGUGAGAGAGAGAAGUGAACCAGAGAAACACACGUUGUGGUAUAUUACCUGGUA [C4A A23G] | 0.209
GUUCUCUUUCACGUGCGCGUGAAAGAGAGAAGUGAACCAGAGAAACACACGUUGUGGUAUAUUACGUGGUA [C3U C66G] | 0.0901
GUUCUCUUCCACGUGCGCGUGAAAGAGAGAAGUGAACCAGAGAAACACACGUUGUGGUAUAUUACCUGGUA [C3U U9C] | 0.387
GUUCUCUUACACGUGCGCGUGAAAGAGAGAAGUGAACCAGAGAAACACACGUUGUGGUAUAUUACCUGGUA [C3U U9A] | 0.299
GUUCUCUUUCACGUGCGCGUGAAAGAGAGAAGUGAACCAGAGAAACACACGUUGUGGUAUAUAACCUGGUA [C3U U63A] | 0.189
GUCAUCUUUCACGUGCGCGUGAAAGAGAGAAGUGAUCCAGAGAAACACACGUUGUGGUAUAUUACCUGGUA [C4A A36U] | 0.197
GUCAUCUUUCACGUGCGCGUGAAAGAGAGAAGUGAACCAGAGAAACACUCGUUGUGGUAUAUUACCUGGUA [C4A A49U] | 0.189
GUUCUCUUUCACGUGCGCGUGAAAGAGAGAAGUGAACCAGAGAAACACACGUUGUGGUAUAUUACCUCGUA [C3U G68C] | 0.142
GUUCUCUUUCACGUGCGCGUGAAAGAGAGAAGUGAACCAGAGAAACACACGUCGUGGUAUAUUACCUGGUA [C3U U53C] | 0.672
GUUCUCUUUCACGUGCGCGUGAAAGAGAGAAGUGAACCAGAAAAACACACGUUGUGGUAUAUUACCUGGUA [C3U G42A] | 0.123
GUUCUCUUUCACGUGCGCGUGAAAGAGAGAAGUGAACCAGAUAAACACACGUUGUGGUAUAUUACCUGGUA [C3U G42U] | 0.21
GUUCUCUUUCACGUGCUCGUGAAAGAGAGAAGUGAACCAGAGAAACACACGUUGUGGUAUAUUACCUGGUA [C3U G17U] | 0.473
GUUCUCUUUCACGUGCGCGUGAAAGAGAGAAGUGAACCAUAGAAACACACGUUGUGGUAUAUUACCUGGUA [C3U G40U] | 0.119
GUUCUCUUUCACGUGCGCGUGAAAGAGAGAAGUGAACCACAGAAACACACGUUGUGGUAUAUUACCUGGUA [C3U G40C] | 0.0768
GUCAUCUUUCACGUGCGCGUGAAAGGGAGAAGUGAACCAGAGAAACACACGUUGUGGUAUAUUACCUGGUA [C4A A26G] | 0.17
GUCAUCUUUCACGUGCGCGUGAAAGUGAGAAGUGAACCAGAGAAACACACGUUGUGGUAUAUUACCUGGUA [C4A A26U] | 0.228
GUCAUCUUUCACGUGCGCGUGAAAGCGAGAAGUGAACCAGAGAAACACACGUUGUGGUAUAUUACCUGGUA [C4A A26C] | 0.13
GUCAUCUUUCACGUGCGCGUGAAAGAGAGAAGUGAACUAGAGAAACACACGUUGUGGUAUAUUACCUGGUA [C4A C38U] | 0.135
GUCAUCUUUCACGUGCGCGUGAAAGAGAGAAGUGAACCAGAGAAACACACGUUGUGGUAUAUUACUUGGUA [C4A C66U] | 0.136
GUCAUCUUUCACGUGCGCGUGAAAGAGAGAAGUGAACCAGAGAAACACACGUUGUGGUAUAUUACGUGGUA [C4A C66G] | 0.193
GUUCUCUUUCACGUGCGCGUGAAAGAGAGAAGUGAACCAGAGAAACACACGUUGUGGUAUAUUAGCUGGUA [C3U C65G] | 0.153

Variant | self-cleavage
GUUCUCUUUCACGUGCGCGUGAAAGAGAGAAGUGAACCAGAGAAACACACGUUGUGGUAUAUUACCCGGUA [C3U U67C] | 0.122
GUCAUCUUUCAAGUGCGCGUGAAAGAGAGAAGUGAACCAGAGAAACACACGUUGUGGUAUAUUACCUGGUA [C4A C12A] | 0.187
GUUCUCUUUCACGUGCGCGUGAAAGAGAGAAGUGAACCAGAGAAACACACGAUGUGGUAUAUUACCUGGUA [C3U U52A] | 0.522
GUUCUCUUUCACGUGCGCGUCAAAGAGAGAAGUGAACCAGAGAAACACACGUUGUGGUAUAUUACCUGGUA [C3U G21C] | 0.32
GUUCUCUUUCACGUGCGCGUUAAAGAGAGAAGUGAACCAGAGAAACACACGUUGUGGUAUAUUACCUGGUA [C3U G21U] | 0.472
GUUCUCUUUCACGUGCGCGUGAAAGAGAGAAGUGAACCAGAGAAACACACGUUGUGGUAUAUUACCUGCUA [C3U G69C] | 0.185
GUCAUCUUUCACGUGCGCGUGAAAGAGAGAAGUGAACCAGAGAAACACAGGUUGUGGUAUAUUACCUGGUA [C4A C50G] | 0.149
GUCAUCUUUCACGUGCGCGUGAAAGAGAGAAGUGAACCAGAGAAACACAAGUUGUGGUAUAUUACCUGGUA [C4A C50A] | 0.178
GUCAUCUUUCACGUGCGUGUGAAAGAGAGAAGUGAACCAGAGAAACACACGUUGUGGUAUAUUACCUGGUA [C4A C18U] | 0.342
GUCAUCUUUCACGUGCGGGUGAAAGAGAGAAGUGAACCAGAGAAACACACGUUGUGGUAUAUUACCUGGUA [C4A C18G] | 0.198
GUCAUCUUUCACGUGCGCGUGAAGGAGAGAAGUGAACCAGAGAAACACACGUUGUGGUAUAUUACCUGGUA [C4A A24G] | 0.143
GUUCCCUUUCACGUGCGCGUGAAAGAGAGAAGUGAACCAGAGAAACACACGUUGUGGUAUAUUACCUGGUA [C3U U5C] | 0.299
GUCAUCUUUCACGUACGCGUGAAAGAGAGAAGUGAACCAGAGAAACACACGUUGUGGUAUAUUACCUGGUA [C4A G15A] | 0.227
GUCAUCUUUCACGUUCGCGUGAAAGAGAGAAGUGAACCAGAGAAACACACGUUGUGGUAUAUUACCUGGUA [C4A G15U] | 0.182
GUCAUCUUUCACAUGCGCGUGAAAGAGAGAAGUGAACCAGAGAAACACACGUUGUGGUAUAUUACCUGGUA [C4A G13A] | 0.193
GUUCUCUUUCACGUGCGCGUGAAAGAGAGAAGUGAACCAGAGAAACACACGUUGUAGUAUAUUACCUGGUA [C3U G56A] | 0.16
GUCAUCUUUCACGUGCGCGUGAAAGAGAGAAGUGAACCAGGGAAACACACGUUGUGGUAUAUUACCUGGUA [C4A A41G] | 0.13
GUUCUCUUUCACGUGUGCGUGAAAGAGAGAAGUGAACCAGAGAAACACACGUUGUGGUAUAUUACCUGGUA [C3U C16U] | 0.628
GUUCUCUUUCACGUGCGCGUGAAAGAGAGAAGUGAAGCAGAGAAACACACGUUGUGGUAUAUUACCUGGUA [C3U C37G] | 0.262
GUUCUCUUUCACGUGCGCGUGAAAGAGAGAAGUGAAACAGAGAAACACACGUUGUGGUAUAUUACCUGGUA [C3U C37A] | 0.315
GUUCUCUUUCACGUGCGCGUGAAAGAGAGAAUUGAACCAGAGAAACACACGUUGUGGUAUAUUACCUGGUA [C3U G32U] | 0.102
GUUCUCUUUCACGUGCGCGUGAAAGAGAGAAAUGAACCAGAGAAACACACGUUGUGGUAUAUUACCUGGUA [C3U G32A] | 0.08
GUCAUCUUUCACGUGCGCGUGAAAGAGAGAAGUGAACCAGAGAUACACACGUUGUGGUAUAUUACCUGGUA [C4A A44U] | 0.239
GUUCUCUUUCACGUGCGCGCGAAAGAGAGAAGUGAACCAGAGAAACACACGUUGUGGUAUAUUACCUGGUA [C3U U20C] | 0.38
GUUCUCUUUCACGUGCGCGUGAAAGAGAGAAGUGAACCAGAGAAACACACGUUGUGGUAUAGUACCUGGUA [C3U U62G] | 0.259
GUUCUCUUUCACGUGCGCGUGAAAUAGAGAAGUGAACCAGAGAAACACACGUUGUGGUAUAUUACCUGGUA [C3U G25U] | 0.187

Variant | self-cleavage
GUUCUCUUUCACGUGCGCGUGAAAAAGAGAAGUGAACCAGAGAAACACACGUUGUGGUAUAUUACCUGGUA [C3U G25A] | 0.205
GUUCUCUUUCACGUGCGCGUGAAAGAGAGAAGUGAACCAGAGAAACACACGUUGUGGUAUAUUACCUGGAA [C3U U70A] | 0.305
GUUCUCUUUCACGUGCGCGUGAAAGAGAGAAGUGAACCAGAGAAACACACGUUGUGGUAUAUUACCUGGCA [C3U U70C] | 0.351
GUUCUCUCUCACGUGCGCGUGAAAGAGAGAAGUGAACCAGAGAAACACACGUUGUGGUAUAUUACCUGGUA [C3U U8C] | 0.253
GUCAUCUUUCACGUGCGCGUGAAAGAGAGAAGUGAACCAGAGAAACACACGUUGUGGUAUAUUACCUGGUC [C4A A71C] | 0.674
GUCAUCUUUCACGUGCGCGUGAAAGAGAGAAGUGAACCAGAGAAACACACGUUGUGGUAUAUUAGCUGGUA [C4A C65G] | 0.179
GUUCUCUUUCACUUGCGCGUGAAAGAGAGAAGUGAACCAGAGAAACACACGUUGUGGUAUAUUACCUGGUA [C3U G13U] | 0.429
GUCAUCUUUCACGUGCGCGUGAAAGAGAGAAGUGAACCAGAGGAACACACGUUGUGGUAUAUUACCUGGUA [C4A A43G] | 0.0748
GUCAUCUUUCACGUGCGCGUGAAAGAGAGAAGUGCACCAGAGAAACACACGUUGUGGUAUAUUACCUGGUA [C4A A35C] | 0.127
GUUCUCUUUCACGUGCGCGUGAAAGAGAGAAGUGAACCAGAGAAACACACGUUUUGGUAUAUUACCUGGUA [C3U G54U] | 0.227
GUUCUCUUUCACGUGCGCGUGAAAGAGAGAAGUUAACCAGAGAAACACACGUUGUGGUAUAUUACCUGGUA [C3U G34U] | 1.17
GUCAUCUUUCCCGUGCGCGUGAAAGAGAGAAGUGAACCAGAGAAACACACGUUGUGGUAUAUUACCUGGUA [C4A A11C] | 0.353
GUCAUCUUUGACGUGCGCGUGAAAGAGAGAAGUGAACCAGAGAAACACACGUUGUGGUAUAUUACCUGGUA [C4A C10G] | 0.164
GUCAUCUUUCACGUGCGCGUGAAAGAGAGAAGUGAACCAGAGAAACAUACGUUGUGGUAUAUUACCUGGUA [C4A C48U] | 0.15
GUCAUCUUUCACGUGCGCGUGAAAGAGAGAAGUGAACCAGAGAAACAGACGUUGUGGUAUAUUACCUGGUA [C4A C48G] | 0.207
GUCAUCUUUCACGUGCGCGUGAAAGAGUGAAGUGAACCAGAGAAACACACGUUGUGGUAUAUUACCUGGUA [C4A A28U] | 0.174
GUCAUCUUUCACGUGUGCGUGAAAGAGAGAAGUGAACCAGAGAAACACACGUUGUGGUAUAUUACCUGGUA [C4A C16U] | 0.197
GUCAUCUUUCACGUGCGCGUGAAAGAGAGAGGUGAACCAGAGAAACACACGUUGUGGUAUAUUACCUGGUA [C4A A31G] | 0.101
GUUCUCUUUCACGUGCGCGUGAAAGAGAGAAGUGAACCAGAGAAACACACGUUGUGCUAUAUUACCUGGUA [C3U G57C] | 0.094
GUUCUCUUUCACGUGCGCGUGAAAGAGAGAAGUGAACCAGAGAAACACACGUUGUGGUACAUUACCUGGUA [C3U U60C] | 0.705
GUUCUCUUUCACGUGCGCGUGAAAGAGAGAAGUGAACCAGAGAAACACACGUUGUGGUAGAUUACCUGGUA [C3U U60G] | 0.331
GUUCUCUUUCACGUGCGCGUGAAAGAGAGAAGUGAACGAGAGAAACACACGUUGUGGUAUAUUACCUGGUA [C3U C38G] | 0.201
GUCAUCUUUCACGUGCGCGUGAAAGAGAGAAGUGAACCAGAGAAACACACGUUGUGGUUUAUUACCUGGUA [C4A A59U] | 0.0921
GUCAUCUUUCACGUGCGCGUGAAAGAGAGAAGUGAACCAGAGAAACACACGUUGUGGUCUAUUACCUGGUA [C4A A59C] | 0.191

Source: the RNAGym collection of RNA variant scans (doi:10.7554/elife.80360)
